Molecular target: human 0T7T022 receptor (human)
Assay: cell-based or functional assay

Row | Substance | ED50, inhibition of the cAMP level increased by forskolin [nM]
1 | hRFRP-1-37 (peptide having the 56 (Ser) to 92 (Phe) amino acid sequence in SEQ ID NO:1) | 21
2 | rRFRP-1-37 (peptide having the 58 (Ser) to 94 (Phe) amino acid sequence in SEQ ID NO:50) | 30

— patent publication EP1262190A1, “RFRP-CONTAINING PROLACTIN SECRETION REGULATORY AGENT” (Takeda Chemical Industries, Ltd., priority 2000, dated 2001)
